Target: T1, HA-tPPARγΔ64D (THP-1) (human, UniProt P37231-2 65-477)
T1 construct: also called truncated PPARγ; source: THP-1, transfected, in cell extract; not shown: HA, C-terminal, kept
T1 sequence (looked up): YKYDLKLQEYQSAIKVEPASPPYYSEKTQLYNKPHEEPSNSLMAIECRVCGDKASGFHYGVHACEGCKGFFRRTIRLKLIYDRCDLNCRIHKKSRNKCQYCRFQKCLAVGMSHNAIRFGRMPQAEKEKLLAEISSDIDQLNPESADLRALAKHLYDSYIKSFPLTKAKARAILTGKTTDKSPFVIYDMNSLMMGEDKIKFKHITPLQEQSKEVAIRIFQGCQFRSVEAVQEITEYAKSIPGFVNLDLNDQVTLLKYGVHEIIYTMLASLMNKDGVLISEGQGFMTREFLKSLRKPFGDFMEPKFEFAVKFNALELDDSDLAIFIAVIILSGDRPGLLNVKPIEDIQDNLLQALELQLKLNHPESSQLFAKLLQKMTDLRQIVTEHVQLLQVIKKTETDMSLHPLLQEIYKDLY
Test: co-IP; THP-1 cells transfected with HA-PPARγ or HA-tPPARγΔ64D; extracts precipitated with anti-HA and blotted with anti-MCAD, or precipitated with anti-MCAD and blotted with anti-HA; blots scanned
Conditions: partners not purified

B1: medium-chain acyl-CoA dehydrogenase (MCAD), endogenous in THP-1 (enzyme, human (endogenous in THP-1), UniProt P11310 26-421, looked up)
chain: KANRQREPGLGFSFEFTEQQKEFQATARKFAREEIIPVAAEYDKTGEYPVPLIRRAWELGLMNTHIPENCGGLGLGTFDACLISEELAYGCTGVQTAIEGNSLGQMPIIIAGNDQQKKKYLGRMTEEPLMCAYCVTEPGAGSDVAGIKTKAEKKGDEYIINGQKMWITNGGKANWYFLLARSDPDPKAPANKAFTGFIVEADTPGIQIGRKELNMGQRCSDTRGIVFEDVKVPKENVLIGDGAGFKVAMGAFDKTRPVVAAGAVGLAQRALDEATKYALERKTFGKLLVEHQAISFMLAEMAMKVELARMSYQRAAWEVDSGRRNTYYASIAKAFAGDIANQLATDAVQILGGNGFNTEYPVEKLMRDAKIYQIYEGTSQIQRLIVAREHIDKYKN
notes: medium-chain acyl-CoA dehydrogenase (MCAD), mitochondrial; detected and precipitated with an anti-MCAD antibody; source: endogenous, THP-1 cell extract
- fold MCAD bound against full-length PPARγ: 8 fold
